In patent publication US7893023B2, “Prodrugs activated by plasmin and their use in cancer chemotherapy” (priority 2000, dated 2011):
Where two headings read alike, the source gives them in different places. Square brackets hold non-standard residues; d marks the D form. Peptide text beside a SMILES is read from it. * marks the point of attachment. ξ: configuration not given here. Doxorubicin(3'-N) = COc1cccc2c1C(=O)c1c(O)c3c(c(O)c1C2=O)C[C@@](O)(C(=O)CO)C[C@@H]3O[C@H]1C[C@H](N*)[C@H](O)[C@H](C)O1; X1 = COc1cccc2c1C(=O)c1c(O)c3c(c(O)c1C2=O)C[C@@](O)(C(C)=O)CC3OC1C[C@H](N*)[C@H](C)[C@H](C)O1; AMC = Cc1cc(=O)oc2cc(N*)ccc12; ξL = CC(C)CC(N)C(=O)O; ξK = NCCCCC(N)C(=O)O; ξA = CC(N)C(=O)O

What was measured:
[1] = system: medium conditioned by cultured B16-B16 cells; test: Hydrolysis in medium conditioned by B16-B16 cells; assay type: in vitro ADME, murine; conditions: 17.24 μM, medium 20 times concentrated, 2 hours, 37° C.
Method: Compounds I, DNR and II, DNR (17.24 μM) were incubated in a medium freshly conditioned by the cultured B16-B16 cells (20 times concentrated) for 2 hours at 37° C. After that time, triplicate aliquots were removed and the drugs and metabolites extracted prior to HPLC analysis (See General Methods, Section J.).

human plasmin = biological target: T1, human plasmin (Homo sapiens, UniProt P00747); test: Hydrolysis by human plasmin; assay type: biochemical; conditions: for rate of in vitro hydrolysis by human plasmin: 0.17 mM, 0.1 units human plasmin, 25° C., 50 mM pH 8.0 TES buffer
T1 construct: purchased Sigma
Method: In an eppendorf tube, 50 μl of the substrate at a concentration of 50 μM in DMF were mixed with 900 μl of TES buffer and 50 μl of an enzyme-containing solution. The mixture was incubated for 1 hour at 25° C. Fluorescence was determined (λexc=350 nm, λem=496 nm; fluorometer standardized with a 10 nM solution of 7-amido-4-methylcoumarin in PBS and the whole mixture excluding the enzyme). A dosage curve was done in parallel with known plasmin concentrations (at least five ½ dilutions). Plasmin activity was determined and expressed in IU/ml; μmole substrate transformed/min×ml.
Compounds I, DNR and II, DNR (0.17 mM), as well as D-Ala-Leu-Lys-7-amido-4-methylcoumarin (0.17 mM) were incubated at 25° C. in the presence of 0.1 units of human plasmin in a 50 mM, pH 8.0 TES buffer. For Compounds I, DNR and II, DNR, HPLC samples were prepared and analyzed by HPLC (See General Methods, Section J). In case of D-Ala-Leu-Lys-7-amido-4-methylcoumarin, after 1 hour of incubation, the fluorescence of the resulting solution was determined at λexc=350 nm, λem=496 nm (See General Methods, Section N.).
After 15, 45 and 60 min of incubation, triplicate aliquots were removed and the drugs and metabolites extracted prior to HPLC analysis (See General Methods, Section J.).

[2] = Acute toxicity in OF-1 mice, i.p.; assay type: in vivo; conditions: male, mouse, in vivo, ip; OF-1 mice, five i.p. injections days 0-4, calculated on day 28
Method: (§1) The percentage of surviving mice and the mean body weight of each dose group was plotted as a function of time. Cumulative mortality on day 14 and day 28 was also plotted as a function of the dose level for the purpose of IC50 determination. IC50 values were determined from sigmoidal regressions performed with the GraphPad Prism 3.00 software.
(§2) Male OF-1 mice (5 weeks old upon delivery), were kept for one week under laboratory conditions before the experiment. […] The animals were divided in six groups (5 mice per group) for toxicity studies and marked individually.
(§3) Mortality and clinical signs were recorded up to 4 hours post-treatment on dosing days, and daily thereafter. Individual body weights were recorded daily until day 14 and at least twice a week thereafter. The percentage of surviving mice and the mean body weight of each dose group were plotted as a function of time. Cumulative mortality on day 14 and day 28 was also plotted as a function of the dose level for the purpose of LD50 determination. LD50 values were determined by regression analysis.

OF-1 mice = test: Acute toxicity in OF-1 mice, i.p.; assay type: in vivo
Method: as §1, §2, §3

[3] = system: LS174T colon tumor xenografts; test: Chemotherapeutic activity in the LS174T human colon tumor xenograft model; assay type: in vivo, mice
Description: Animals were kept under pathogen-free conditions with food and water supplied ad libitum, and kept for about one week before implantation of the tumors. Fragments (˜2 mm) of tumors grown in nude mice were implanted subcutaneously in both flanks of the mice. Tumors were generally allowed to grow to attain a diameter of 5-6 mm each (approximately two weeks).
The mice weighed 20.0-25.0 g at the beginning of the study. They were selected and assigned to groups in order to have equally distributed tumor volumes in the different groups. In each group, mice were labeled individually. Treatments were assigned randomly to those groups.
All dosing solutions were prepared the day of injection by dissolution in water ( 1/10 of the expected final volume) and further dilution with 0.9% (w/v) NaCl. The concentration of these solutions was checked (A475 nm determination) after sterilization by filtration (0.22 μm) and adjusted to the final required value using sterile 0.9% (w/v) NaCl).
Treatments were administered by the i.p. route. The mice received a constant volume (10 μl/g) of either saline (control group) or drug. Mortality and clinical signs were recorded up to 4 hours post-treatment on dosing days, and daily thereafter. Their behavior was equally noted. Individual body weights were generally recorded daily until day 14 and at least twice a week thereafter.
Tumor growth was monitored by two-dimensional measurements using calipers and a precision of 0.5 mm. Tumor volumes were calculated according to the following formula: Vt=[length×(width)^2]/2
Median relative tumor volumes (RTV) were calculated as tumor volumes determined at individual days divided by tumor volumes on day 0. For treated groups, growth inhibition was estimated as the percentage ratio of median RTV of treated (T) mice versus controls (C) on each day of tumor treatment. T/C(%)=[Median RTV(treated group)/Median RTV(control group)]×100
The minimal T/C value (%) for each treatment was used as a parameter for maximum efficacy. Duration of growth inhibition was assessed by considering growth delays (T-C) for one (200%) and two (400%) doublings of the median RTV).
To determine the statistical significance of any difference in median RTV between two groups, the Mann-Whitney test was used. The test was conducted at a p level of 0.05 (two tailed) using the GraphPad Prism 3.00 software.
Female Swiss nude mice were 5 weeks old upon delivery (See General Methods, Section O). They were kept under pathogen-free conditions with food and water supplied ad libitum, and kept for about one week before implantation of the tumors. Fragments (˜2 mm) of LS174T tumors grown in nude mice were implanted subcutaneously in both flanks of the mice used in the study. Tumors were left to grow for 17 days. At that time, the mice weighed about 20.5-26.5 g.
Mice were then selected and assigned to groups in order to have equally distributed tumor volumes in different groups (5-6 mice, 9-10 tumors/group). The dose levels of Compound II, DOX used in the study, were selected on the basis of a lethality study previously conducted on OF-1 normal mice. The dose of DOX was based on previous chemotherapy experiments performed in nude mice with the same dosing schedule.
Treatments were administered by the i.p. route on days 0, 1, 2, 3 and 4, the mice receiving a constant volume (10 μl/g) of either saline or the different dosing solutions. DOX was used at 3.8 μmol/kg, Compound II, DOX was used at 25.9 μmol/kg and 34.5 μmol/kg. Clinical signs (recorded 0.5, 1, 2 and 4 hours after dosing and daily between dosing days) and body weights (recorded on each day of tumor measurement) were used to assess treatment toxicity, tumor growth was monitored on days 7, 12, 15, 19, 22, 26, 29, 33 and 36 by two-dimensional measurements using calipers and a precision of 0.5 mm.

B16-B16 melanoma cells = test: Uptake by B16-B16 cells; assay type: cell-based, murine
Method: This experiment was conducted to evaluate whether the prodrugs were able to enter cultured cells in their non-hydrolyzed forms. In addition, it was desired to estimate the capacity of the prodrugs to induce detectable levels of products of their enzymatic hydrolysis (DNR and its amino acid derivatives) inside B16-B16 cells. N-Leu-Leu-DNR was chosen as a reference drug since it is the product that is directly liberated by plasmin from Compound II, DNR.
At determined time points (1, 3, 5 and 24 hours), the cells were washed, harvested and lysed by ultrasonication. The concentration of the drugs and metabolites in the cell lysates were determined after extraction and HPLC analysis (See General Methods, Section J.). The amounts of anthracycline derivatives found per mg of protein were then compared.

[4] = system: MCF-7/6 human mammary carcinoma cells; test: In vitro accumulation by cultured MCF-7/6 tumor cells; assay type: cell-based; conditions: 0.02 mM, 37° C., after 24 hours
Method: Compound I, DNR was incubated in vitro at 37° C. in the presence of MCF-7/6 human mammary carcinoma cells and the intracellular accumulation of the compound or its potential metabolites were analyzed by HPLC and fluorimetry, after extraction of the drugs from the cells.
Compound I, DNR was dissolved in distilled water at 17.24 μmole/ml and then diluted to obtain 0.02 mM in DMEM-F12 culture medium supplemented with 10% fetal calf serum (glutamax-I). Four ml of medium was poured in 25 cm^2 flasks (ref 3014. FALCON), and the cells were incubated for 30 minutes, 1, 3, 6 and 24 hours at 37° C. Then the cells were washed three times with PBS, and the cells were scraped from the flasks, and sonicated for 30 seconds at 100 Watts in a ice bath. Aliquots of 500 μl from each sample were then extracted with 1.8 ml of a chloroform:methanol mixture (4:1 by volume) to which 0.1 ml of 0.2 M borate buffer at pH 9.2, containing DOX at […] as internal standard, were added. After stirring, the organic layer was dried and resuspended in 400 μl of distilled water, sonicated 5 minutes at 100 Watts in a ice-bath and filtered through a 0.22 μm filter (Waters-Millipore, MILLEX-GV) and then analyzed by HPLC.
On a aliquot of 100 μl, the protein content of the cell homogenate was determined.

[5] = DOX 3.8 μmol/kg, Compound II, DOX lower dosage 25.9 μmol/kg, i.p. days 0-4

T1 sequence (P00747 581-810 limits assumed): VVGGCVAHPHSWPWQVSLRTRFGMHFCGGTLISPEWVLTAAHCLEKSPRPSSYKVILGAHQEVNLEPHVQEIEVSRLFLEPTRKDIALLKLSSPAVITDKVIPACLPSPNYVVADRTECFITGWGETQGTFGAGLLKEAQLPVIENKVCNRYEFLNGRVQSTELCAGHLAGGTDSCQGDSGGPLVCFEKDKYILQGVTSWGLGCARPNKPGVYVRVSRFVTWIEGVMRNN
T1 sequence (P00747 97-580 partner limits assumed): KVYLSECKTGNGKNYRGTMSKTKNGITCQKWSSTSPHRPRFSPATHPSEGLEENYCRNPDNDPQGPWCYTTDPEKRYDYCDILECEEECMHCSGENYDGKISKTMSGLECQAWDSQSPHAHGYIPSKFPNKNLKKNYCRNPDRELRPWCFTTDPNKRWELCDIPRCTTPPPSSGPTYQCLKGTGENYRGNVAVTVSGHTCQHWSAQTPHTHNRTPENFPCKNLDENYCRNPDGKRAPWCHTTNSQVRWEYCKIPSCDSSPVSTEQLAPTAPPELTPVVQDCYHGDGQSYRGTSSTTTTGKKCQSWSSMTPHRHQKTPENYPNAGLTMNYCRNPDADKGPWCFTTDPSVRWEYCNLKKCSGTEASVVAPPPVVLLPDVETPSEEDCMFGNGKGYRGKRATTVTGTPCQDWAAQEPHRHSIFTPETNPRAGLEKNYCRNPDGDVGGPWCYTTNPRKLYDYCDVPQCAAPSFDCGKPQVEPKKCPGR
Method for B16-B16 murine melanoma: Male C57-B16 black mice were 5 weeks old upon delivery. The body weight of the animals was approximately 20 g at the beginning of the test (See General Methods, Section O).
The animals were divided in eight groups (5 mice per group). Confluent murine melanoma B16-B16 cells (See General Methods, Section E.) were washed twice with PBS and EDTA (See General Methods, Section F.) twice and detached with trypsin (2 min incubation at 37° C.), that was thereafter neutralized by DMEM-F12 (containing 10% of calf serum). The cells were centrifuged for 5 min at 300 g. The pellet was resuspended twice in the DMEM-F12 without serum and centrifuged 5 min at 300 g.
The number of cells per ml of DMEM-F12 was then estimated (Brucker chamber) and the dilution of 2.5×10^5 cells/ml prepared. Each animal received 200 μl of this suspension (5.0×10^4 cells) in its tail vein. The day of injection was considered day 0 of the study. […] Animals were weighed on days 0, 1, 3, 6, 8 and 14. Their behavior and eventual clinical signs were also noted. All animals were sacrificed on day 14 and autopsied.
The lung lobes were fixed in a Bouin's solution (picric acid: formaldehyde, 40%: acetic acid, 15:5:1, v/v). Every lobe immersed in the fixing solution in a Petri flask was uniformly lighted against an opaque black background. Pictures of the front and back side of every lobe were taken with the help of a light microscope, scanned and digitized. The relative surface occupied by B116-B16 colonies was then estimated with the Scion Image Program.
The individual mean values were analyzed with the Scheffe's F-test to evaluate the statistical significance of differences observed between the groups.

Cc1cc(=O)oc2cc(NC(=O)[C@H](CCCCN)NC(=O)[C@H](CC(C)C)NC(=O)[C@@H](C)N)ccc12 [D-Ala-Leu-Lys-7-amido-4-methylcoumarin, reference compound] (H-[dA]-Leu-Lys-{AMC}; N-terminus assumed)
hydrolysis in medium conditioned by B16-B16 cells [1]: Negative results | rate of in vitro hydrolysis by human plasmin (human plasmin): 20.40 nmol/min/unit

COc1cccc2c1C(=O)c1c(O)c3c(c(O)c1C2=O)C[C@@](O)(C(=O)CO)C[C@@H]3O[C@H]1C[C@H](NC(=O)[C@H](CC(C)C)NC(=O)[C@H](CC(C)C)NC(=O)[C@H](CCCCN)NC(=O)[C@H](CC(C)C)NC(=O)[C@@H](C)N)[C@H](O)[C@H](C)O1 [Compound II, DOX, D-Ala-Leu-Lys-Leu-Leu-DOX] (H-[dA]LKLL-{Doxorubicin(3'-N)})
LD50 at 28 day [2]: 34.5 µmol/kg | survival (OF-1 mice; OF-1 mice, 17.24-60.34 μmol/kg i.p. days 0-4): All animals survived to day 7 | clinical signs of toxicity (OF-1 mice; OF-1 mice, i.p.): piloerection, tremor, motor disturbances, stupor and finally, paralysis of the hind legs | loss of mean body weight compared to initial body weight (critical threshold attained) (OF-1 mice; doses 34.48 (after second week), 43.1 and 60.34 μmol/kg (after first week)): ≥ 20% | LD50 fold higher than that of DOX (OF-1 mice; same conditions): 8.4 fold | mice that died before the end of the study ([3]; 34.5 μmol/kg i.p. days 0-4, deaths on days 18, 34 and 35): three | maximum loss of mean body weight ([3]; 34.5 μmol/kg, day 26): 14% | treatment-related mortality [3, 5]: No treatment-related mortality | weight loss [3, 5]: no significant weight loss | body weight gained from day 6 to day 14 (B16-B16 murine melanoma; 34.5 μmol/kg): 4.9% | mean body weight, % of initial (B16-B16 murine melanoma; 34.5 μmol/kg, day 14): 104.5% | clinical signs of toxicity (B16-B16 murine melanoma; 34.5 and 69.0 μmol/kg): No clinical signs of toxicity were observed

N-Leu-Leu-DNR
intracellular level of metabolite DNR (B16-B16 melanoma cells; B16-B16 cells, 3 hours): 0.67±0.12 nmol/mg cell protein | intracellular level of metabolite L-Leu-DNR (B16-B16 melanoma cells; B16-B16 cells, 3 hours): 81.22±6.66 nmol/mg cell protein | intracellular level of the unchanged compound (B16-B16 melanoma cells; B16-B16 cells, 3 hours of incubation): 7.74±0.75 nmol/mg cell protein | intracellular level of metabolite L-Leu-DNR (B16-B16 melanoma cells; B16-B16 cells, 24 hours): 98.57±16.76 nmol/mg cell protein | intracellular level of the unchanged compound (B16-B16 melanoma cells; B16-B16 cells, 24 hours): 1.04±0.10 mmol/mg cell protein | intracellular level of metabolite DNR (B16-B16 melanoma cells; B16-B16 cells, 24 hours (end of incubation)): 1.60±0.77 nmol/mg cell protein

COc1cccc2c1C(=O)c1c(O)c3c(c(O)c1C2=O)C[C@@](O)(C(C)=O)CC3OC1C[C@H](NC(=O)C(CC(C)C)NC(=O)C(CCCCN)NC(=O)C(CC(C)C)NC(=O)C(C)N)[C@H](C)[C@H](C)O1 (stereo partly drawn) [Compound I, DNR, D-Ala-Leu-Lys-Leu-DNR]
hydrolysis in medium conditioned by B16-B16 cells [1]: Negative results | rate of in vitro hydrolysis by human plasmin (human plasmin): approximately 2.75 nmol/min/unit | accumulation by cultured MCF-7/6 cells [4]: approximately 0.1 μg/mg of cell proteins | intracellular level of metabolite DNR (B16-B16 melanoma cells): 0.015±0.002 mmol/mg cell protein

COc1cccc2c1C(=O)c1c(O)c3c(c(O)c1C2=O)C[C@@](O)(C(C)=O)CC3OC1C[C@H](NC(=O)C(CC(C)C)NC(=O)C(CC(C)C)NC(=O)C(CCCCN)NC(=O)C(CC(C)C)NC(=O)C(C)N)[C@H](C)[C@H](C)O1 (stereo partly drawn) [Compound II, DNR, D-Ala-Leu-Lys-Leu-Leu-DNR] (H-[ξA][ξL][ξK][ξL][ξL]-X1)
hydrolysis in medium conditioned by B16-B16 cells [1]: Negative results | rate of in vitro hydrolysis by human plasmin (human plasmin): 27.90 nmol/min/unit | hydrolysis by plasmin, times more rapid than Compound I, DNR (human plasmin; same conditions): at least 10 times
